Entries after “also recorded” stand apart in the source; their conditions may differ. Marks after values point to notes of the source that are not given here.
Legend:
[1] = biological target: T1, Hu-Asp2 (Homo sapiens, UniProt P56817); assay: Hu-Asp2 peptide substrate cleavage assay (HPLC quantitation of cleavage products); assay type: biochemical; design: key to Activity: Those substrates that were not cleaved by the Hu-Asp2 are indicated by a “−” sign; substrates that produced activity are indicated by “+” signs in which the greater the activity, the more + signs are provided; ++: substrates that produced activity are indicated by “+” signs in which the greater the activity, the more + signs are provided; ++++: substrates that produced activity are indicated by “+” signs in which the greater the activity, the more + signs are provided; conditions: for Activity: 200 μM test substrate, 210 nM Hu-Asp2 enzyme, pH 4.5, 37° C., 3 hours
T1 construct: made in house; host or cells: High Five insect cells
Protocol: The peptides listed in Table 2 were designed, synthesized, and tested for activity as substrates for Hu-Asp2. 200 μM of each test substrate was incubated with 210 nM Hu-Asp2 enzyme at pH 4.5 at 37° C. for 3 hours. Of course it should be understood that these are merely exemplary assay conditions, and those of skill in the art will be able to vary these conditions and yet still provide appropriate Hu-Asp2 activity. For example, it is envisioned that the assays may be conducted at a pH range of from between about 4.0 to about 7.0. The amount of enzyme added to a given reaction mixture may also be varied and those of skill in the art will be able to perform assays defining the optimal enzyme concentrations necessary for a given assay, as such 150 nm; 200 nm; 250 nm; 300 nm or more or less enzyme may be added. Substrate concentration in those also may be varied such that an assay may use 100, 150 μM, 200 μM, 250 μM, 300 μM, 350 μM or more or less of any given; substrate. It may be that one substrate produces an optimum activity at one concentration whereas another substrate is needed to be present at a different concentration to produce an optimum cleavage rate. However, such optimizations of enzyme assay conditions is well within the skill of those in the art and will not require undue experimentation.
In an exemplary assay to determine the cleavage of the substrates of the present invention, Asp2 was prepared from High Five™ insect cells. Generally, the assasy are run in solution at acidic pH (4.0 to 5.0), at 25-37° C. in the presence of nM or sub-nanomolar enzyme. After a suitable period of incubation the reaction is stopped at a desired time by addition of 4% trifluoracetic acid (TFA). Substrates and products are separated using reverse phase HPLC. The disappearance of the substrates and the appearance of the products are monitored by continuous measurement of the absorbance of the effluent at […]. Furthermore, if the peptide comprises a tryptophan residue, the monitoring may additionally or alternatively involve continuous monitoring of fluorescence of tryptophan fluorescence (excitation at 280 nm, emission at […]) of the effluent.
In a typical assay, 210 nM enzyme and 200 μM substrate were incubated in 0.2 M sodium acetate at pH 4.5 in 100 μl volume at 37° C. for 1 to 3 hours. The assay was stopped by the addition of 50 μl 4% TFA to lower the pH below the active range of the enzyme. Subsequently, 100 μl of this mixture was injected into a Hewlett Packard Model 1090 HPLC equipped with a Vydac column (4.6 mm i.d.×150 mm, 5 μm) pre-equilibrated with 95% A (0.15% TFA in water), 5% B (0.15% TFA in acetonitrile). The constituents were then eluted from the column with the following linear gradients: 0-15 min: 5-50% B; 15-17 min: 50-100% B; 17-20 min: 100-5% B; 20-22 min: 5% B). The cleavage products were then quantitated using an enhanced integrator. […]

[2] = biological target: T1, Hu-Asp2; assay: as above; assay type: biochemical
[3] = Table 5, 2 nM enzyme, 50 μM substrate, 25 mM Sodium acetate, pH 4.4, 37° C., 2 hr
[4] = Table 5, 2 nM enzyme, 50 μM substrate, 25 mM Sodium acetate, pH 4.4, 37° C., 2 hr, SEQ ID NO:141 = 100
[5] = Table 4, 200 nM enzyme, 200 μM substrate, pH 4.5, 37° C., 1 hr, SEQ ID NO:19 = 100

T1 sequence (P56817 46-501): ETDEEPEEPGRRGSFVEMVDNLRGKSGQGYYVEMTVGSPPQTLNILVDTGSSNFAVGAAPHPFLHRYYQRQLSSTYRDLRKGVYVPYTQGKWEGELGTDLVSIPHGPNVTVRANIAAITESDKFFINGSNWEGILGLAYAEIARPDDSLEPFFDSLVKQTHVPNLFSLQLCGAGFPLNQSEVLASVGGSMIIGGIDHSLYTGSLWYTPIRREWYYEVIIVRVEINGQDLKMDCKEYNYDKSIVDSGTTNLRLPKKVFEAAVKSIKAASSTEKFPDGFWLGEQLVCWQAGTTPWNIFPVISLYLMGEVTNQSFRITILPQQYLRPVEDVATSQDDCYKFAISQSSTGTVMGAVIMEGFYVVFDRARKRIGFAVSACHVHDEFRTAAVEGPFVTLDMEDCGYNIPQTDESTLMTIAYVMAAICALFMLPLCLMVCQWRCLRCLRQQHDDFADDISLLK

KVEANY-EVEGERKK (KVEANYEVEGERKK)
activity as substrate of Hu-Asp2 (in words) [1]: good substrate for Hu-Asp
Activity [1]: ++++

KVEANY-LVEGERKK (KVEANYLVEGERKK)
Activity [1]: +

SEIDY-EVEFR (SEIDYEVEFR)
Cleavage Activity [2, 3]: 0.69 µmol/min/mg
Relative rate of Cleavage [2, 4]: 430

SEISY-EVEFR (SEISYEVEFR)
rate of cleavage / activity over SEVSY-EVEFR (SEQ ID NO:141) [2]: 5 fold
Cleavage Activity [2, 3]: 0.80 µmol/min/mg
Relative rate of Cleavage [2, 4]: 500

SEVDY-EVEFR (SEVDYEVEFR)
Cleavage Activity [2, 3]: 0.38 µmol/min/mg
Relative rate of Cleavage [2, 4]: 240

SEVKM-DAEFR (SEVKMDAEFR) [APP-Wildtype, reference compound]
Relative rate of Cleavage ([2]; Table 3, 200 nM enzyme, 200 μM substrate, 300 mM Na-acetate, 4% DMSO, pH 4.5, 37° C., 24 hr reaction): 2.1*
Relative rate of Cleavage ([2]; Table 4, 200 nM enzyme, 200 μM substrate, pH 4.5, 37° C., 24 hr reaction): 2.1*

SEVNL-DAEFR (SEVNLDAEFR) [APP-Sw, reference compound]
Relative rate of Cleavage ([2]; Table 3, 200 nM enzyme, 200 μM substrate, 300 mM Na-acetate, 4% DMSO, pH 4.5, 37° C., 4 hr, APP-Sw = 100): 100
Relative rate of Cleavage [2, 5]: 100.0

SEVNY-↓-EVEFR (SEVNYEVEFR)
activity as fraction of that of SEVSY-EVEFR (SEQ ID NO:141) ([2]; peptide activity assays): ⅕

SEVSY-↓-DAEFR (SEVSYDAEFR)
activity compared with Swedish mutant peptide (SEQ ID NO:19) ([2]; Table 4): about five times less than that of the Swedish mutation
Relative rate of Cleavage [2, 5]: 18.3
activity / rate of hydrolysis by Asp2 over wild type peptide (SEQ ID NO:20) ([2]; Tables 3 and 4): about 9 fold

SEVSY-↓-EAEFR (SEVSYEAEFR)
Relative rate of Cleavage [2, 5]: 77.1
activity as substrate of Hu-Asp2 (in words) [1]: activity comparable to the Swedish mutation; also recorded: activity comparable to that of the Swedish mutant

TEIDY-EVEFR (TEIDYEVEFR)
Cleavage Activity [2, 3]: 0.62 µmol/min/mg
Relative rate of Cleavage [2, 4]: 390

TEVDY-EVEFR (TEVDYEVEFR)
Cleavage Activity [2, 3]: 0.37 µmol/min/mg
Relative rate of Cleavage [2, 4]: 230

TEVSY-EVEFR (TEVSYEVEFR)
Cleavage Activity [2, 3]: 0.27 µmol/min/mg
Relative rate of Cleavage [2, 4]: 160

TRPGSGLTNIKTEEISEVSY-EVEFR (TRPGSGLTNIKTEEISEVSYEVEFR)
rate of cleavage / activity over SEVSY-EVEFR (SEQ ID NO:141) [2]: 8.4 fold
Cleavage Activity [2, 3]: 1.35 µmol/min/mg
Relative rate of Cleavage [2, 4]: 840

VEALY-LVEGER (VEALYLVEGER)
activity as substrate of Hu-Asp2 (in words) [1]: found to be cleaved by the Hu-Asp2

WRRVEALY-LVEGERK (WRRVEALYLVEGERK)
Activity [1]: ++
